According to paper PMC9482650, “Quantitative fragmentomics allow affinity mapping of interactomes” (Nature Communications, 2022):

T1: APBA1_2, Q02410
T1 sequence (Q02410 742-832, limits assumed, looked up): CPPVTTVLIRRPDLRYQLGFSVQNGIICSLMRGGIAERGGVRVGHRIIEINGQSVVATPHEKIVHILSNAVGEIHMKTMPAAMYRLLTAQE

T2: APBA2_1, Q99767
T2 sequence (Q99767 563-664, limits assumed, looked up): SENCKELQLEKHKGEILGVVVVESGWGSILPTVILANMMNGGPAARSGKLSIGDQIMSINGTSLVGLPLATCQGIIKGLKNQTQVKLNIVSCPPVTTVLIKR

T3: APBA3_1, O96018
T3 sequence (O96018 389-490, limits assumed, looked up): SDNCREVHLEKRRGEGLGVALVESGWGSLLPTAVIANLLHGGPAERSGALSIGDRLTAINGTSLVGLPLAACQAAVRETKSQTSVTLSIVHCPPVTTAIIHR

T4: DFNB31_3, Q9P202
T4 sequence (Q9P202 811-907, limits assumed, looked up): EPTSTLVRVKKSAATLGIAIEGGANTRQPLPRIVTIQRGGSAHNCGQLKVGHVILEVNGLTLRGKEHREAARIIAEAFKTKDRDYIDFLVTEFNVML

T5: DVL3, Q92997
T5 sequence (Q92997 244-331, limits assumed, looked up): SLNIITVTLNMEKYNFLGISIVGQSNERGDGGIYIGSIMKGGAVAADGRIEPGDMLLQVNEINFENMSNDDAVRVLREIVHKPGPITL

T6: GRIP1_3, Q9Y3R0
T6 sequence (Q9Y3R0 247-346, limits assumed, looked up): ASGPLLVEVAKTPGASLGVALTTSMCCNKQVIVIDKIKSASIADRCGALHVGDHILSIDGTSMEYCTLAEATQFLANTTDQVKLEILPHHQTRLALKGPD

T7: HTRA3, P83110
T7 sequence (P83110 354-453, limits assumed, looked up): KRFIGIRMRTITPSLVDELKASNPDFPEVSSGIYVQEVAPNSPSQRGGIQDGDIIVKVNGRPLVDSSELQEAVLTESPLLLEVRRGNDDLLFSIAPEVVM

T8: LNX2_3, Q8N448
T8 sequence (Q8N448 463-564, limits assumed, looked up): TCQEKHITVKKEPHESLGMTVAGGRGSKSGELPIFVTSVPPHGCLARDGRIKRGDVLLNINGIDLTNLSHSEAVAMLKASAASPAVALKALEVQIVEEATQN

T9: LRRC7, Q96NW7
T9 sequence (Q96NW7 1440-1537, limits assumed, looked up): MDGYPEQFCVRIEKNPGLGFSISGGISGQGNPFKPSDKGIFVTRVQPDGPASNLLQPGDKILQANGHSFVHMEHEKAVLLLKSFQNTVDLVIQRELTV

T10: NHERF3_3, Q5T2W1
T10 sequence (Q5T2W1 238-333, limits assumed, looked up): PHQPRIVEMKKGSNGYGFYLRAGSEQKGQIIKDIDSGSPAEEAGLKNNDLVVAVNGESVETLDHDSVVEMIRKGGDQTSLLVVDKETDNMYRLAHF

T11: NHERF3_4, Q5T2W1
T11 sequence (Q5T2W1 373-468, limits assumed, looked up): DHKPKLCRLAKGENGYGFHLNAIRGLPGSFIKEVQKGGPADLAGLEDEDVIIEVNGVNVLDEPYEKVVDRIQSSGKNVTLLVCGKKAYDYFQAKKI

T12: PDZD2_2, O15018
T12 sequence (O15018 329-429, limits assumed, looked up): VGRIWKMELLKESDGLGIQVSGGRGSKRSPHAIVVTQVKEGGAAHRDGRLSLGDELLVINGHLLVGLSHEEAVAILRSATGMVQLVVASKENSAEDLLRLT

T13: PDZD7_3, Q9H5P4
T13 sequence (Q9H5P4 857-944, limits assumed, looked up): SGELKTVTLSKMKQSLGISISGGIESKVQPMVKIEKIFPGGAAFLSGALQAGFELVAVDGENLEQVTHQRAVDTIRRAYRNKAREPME

T14: TJP3_3, O95049
T14 sequence (O95049 375-456, limits assumed, looked up): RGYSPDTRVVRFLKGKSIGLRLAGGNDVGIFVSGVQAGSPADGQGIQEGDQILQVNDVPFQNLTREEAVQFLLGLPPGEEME


Experiments:
Test in all cases: holdup assay
Parameters in all cases: key: below the threshold = too weak to quantify, mostly under pKd 3.1 to 4
Conditions in all cases: plain residues with an end cap or a label only (N-terminal biotin on a linker: ado-ado)
APBA1_2, Q02410 = target: T1, APBA1_2, Q02410
APBA2_1, Q99767 = target: T2, APBA2_1, Q99767
APBA3_1, O96018 = target: T3, APBA3_1, O96018
DFNB31_3, Q9P202 = target: T4, DFNB31_3, Q9P202
DLG2_2, Q15700 = target: DLG2_2, Q15700
DVL3, Q92997 = target: T5, DVL3, Q92997
FRMPD2_3, Q68DX3 = target: FRMPD2_3, Q68DX3
GIPC2, Q8TF65 = target: GIPC2, Q8TF65
GRIP1_3, Q9Y3R0 = target: T6, GRIP1_3, Q9Y3R0
GRIP2_7, Q9C0E4 = target: GRIP2_7, Q9C0E4
HTRA3, P83110 = target: T7, HTRA3, P83110
IL16_3, Q14005 = target: IL16_3, Q14005
Inadl_5, Q8NI35 = target: Inadl_5, Q8NI35
Inadl_9, Q8NI35 = target: Inadl_9, Q8NI35
LNX1_1, Q8TBB1 = target: LNX1_1, Q8TBB1
LNX2_3, Q8N448 = target: T8, LNX2_3, Q8N448
LRRC7, Q96NW7 = target: T9, LRRC7, Q96NW7
MAST1, Q9Y2H9 = target: MAST1, Q9Y2H9
NHERF3_3, Q5T2W1 = target: T10, NHERF3_3, Q5T2W1
NHERF3_4, Q5T2W1 = target: T11, NHERF3_4, Q5T2W1
PDZD2_2, O15018 = target: T12, PDZD2_2, O15018
PDZD7_3, Q9H5P4 = target: T13, PDZD7_3, Q9H5P4
TJP1_3, Q07157 = target: TJP1_3, Q07157
TJP3_3, O95049 = target: T14, TJP3_3, O95049

Inadl_9, Q8NI35, sequence (Q8NI35 1530-1615): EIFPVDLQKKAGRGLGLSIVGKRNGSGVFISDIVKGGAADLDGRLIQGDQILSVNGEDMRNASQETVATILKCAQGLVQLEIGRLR
GRIP2_7, Q9C0E4, sequence (Q9C0E4 934-1023): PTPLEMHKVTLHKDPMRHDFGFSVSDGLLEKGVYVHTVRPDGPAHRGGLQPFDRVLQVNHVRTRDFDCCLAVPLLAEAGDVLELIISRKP
FRMPD2_3, Q68DX3, sequence (Q68DX3 1073-1166): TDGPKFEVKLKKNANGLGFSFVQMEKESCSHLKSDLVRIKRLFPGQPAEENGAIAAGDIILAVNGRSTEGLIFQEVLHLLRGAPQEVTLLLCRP
MAST1, Q9Y2H9, sequence (Q9Y2H9 962-1065): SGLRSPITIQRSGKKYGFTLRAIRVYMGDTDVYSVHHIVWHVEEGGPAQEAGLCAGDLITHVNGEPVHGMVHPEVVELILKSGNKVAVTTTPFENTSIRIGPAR
Inadl_5, Q8NI35, sequence (Q8NI35 673-780): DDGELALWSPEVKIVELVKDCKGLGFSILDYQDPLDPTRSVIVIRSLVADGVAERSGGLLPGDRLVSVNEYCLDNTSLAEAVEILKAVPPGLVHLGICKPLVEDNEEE
LNX1_1, Q8TBB1, sequence (Q8TBB1 261-371): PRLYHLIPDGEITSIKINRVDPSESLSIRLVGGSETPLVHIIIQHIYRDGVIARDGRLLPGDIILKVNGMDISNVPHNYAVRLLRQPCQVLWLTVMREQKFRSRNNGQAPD
GIPC2, Q8TF65, sequence (Q8TF65 112-203): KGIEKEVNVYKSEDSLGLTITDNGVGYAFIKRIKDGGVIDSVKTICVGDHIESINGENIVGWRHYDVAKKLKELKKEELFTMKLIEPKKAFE
IL16_3, Q14005, sequence (Q14005 1107-1207): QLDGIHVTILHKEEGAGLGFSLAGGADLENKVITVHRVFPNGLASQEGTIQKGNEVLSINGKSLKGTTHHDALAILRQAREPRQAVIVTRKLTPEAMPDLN
TJP1_3, Q07157, sequence (Q07157 416-512): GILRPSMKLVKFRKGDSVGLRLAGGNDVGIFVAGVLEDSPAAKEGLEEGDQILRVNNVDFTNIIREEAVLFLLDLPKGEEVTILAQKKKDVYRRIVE
DLG2_2, Q15700, sequence (Q15700 189-283): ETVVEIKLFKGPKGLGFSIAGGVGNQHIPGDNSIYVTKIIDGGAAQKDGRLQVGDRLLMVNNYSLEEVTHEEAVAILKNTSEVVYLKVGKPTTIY

| pKd (APBA1_2, Q02410) | pKd (APBA2_1, Q99767) | pKd (APBA3_1, O96018) | pKd (DFNB31_3, Q9P202) | pKd (DLG2_2, Q15700) | pKd (DVL3, Q92997) | pKd (FRMPD2_3, Q68DX3) | pKd (GIPC2, Q8TF65) | pKd (GRIP1_3, Q9Y3R0) | pKd (GRIP2_7, Q9C0E4) | pKd (HTRA3, P83110) | pKd (IL16_3, Q14005) | pKd (Inadl_5, Q8NI35) | pKd (Inadl_9, Q8NI35) | pKd (LNX1_1, Q8TBB1) | pKd (LNX2_3, Q8N448) | pKd (LRRC7, Q96NW7) | pKd (MAST1, Q9Y2H9) | pKd (NHERF3_3, Q5T2W1) | pKd (NHERF3_4, Q5T2W1) | Binder | further results |
| --- | --- | --- | --- | --- | --- | --- | --- | --- | --- | --- | --- | --- | --- | --- | --- | --- | --- | --- | --- | --- | --- |
| 3.63 | below the threshold | below the threshold | below the threshold | below the threshold | below the threshold | below the threshold | below the threshold | below the threshold | 3.69 | below the threshold | below the threshold | below the threshold | below the threshold | below the threshold | below the threshold | below the threshold | 4.33 | below the threshold | 3.73 | QPCFNKLFPL [LPXN, O60711] | pKd (PDZD2_2, O15018): below the threshold; pKd (PDZD7_3, Q9H5P4): below the threshold; pKd (TJP1_3, Q07157): below the threshold; pKd (TJP3_3, O95049): below the threshold |
| below the threshold | below the threshold | below the threshold | 3.48 | below the threshold | below the threshold | below the threshold | below the threshold | below the threshold | below the threshold | below the threshold | below the threshold | below the threshold | below the threshold | 3.67 | below the threshold | below the threshold | 4.74 | below the threshold | below the threshold | PRISRSQSEL [CCDC134, Q9H6E4] | pKd (PDZD2_2, O15018): 3.66; pKd (PDZD7_3, Q9H5P4): below the threshold; pKd (TJP1_3, Q07157): below the threshold; pKd (TJP3_3, O95049): below the threshold |
| 3.58 | below the threshold | below the threshold | 3.8 | below the threshold | below the threshold | below the threshold | below the threshold | below the threshold | below the threshold | below the threshold | below the threshold | below the threshold | below the threshold | below the threshold | below the threshold | below the threshold | 4.8 | 4.65 | 5.33 | GQEEQVTTRL [TRPC5, Q9UL62] | pKd (PDZD2_2, O15018): below the threshold; pKd (PDZD7_3, Q9H5P4): 4.89; pKd (TJP1_3, Q07157): below the threshold; pKd (TJP3_3, O95049): below the threshold |
